Experimental findings from US20070178460A1 (ECOLE POLYTECHNIQUE FEDERALE DE LAUSANNE, published 2007) are described below.

What all share (test): split-Trp growth complementation in trp1 yeast EGY48
Assay [1] deals with T1, Sec63p-^44Ctrp (Saccharomyces cerevisiae, UniProt P14906 1-663).
T1 construct: whole, on cells; Expressed in yeast EGY48 from pRS316CUP1 under the PCUP1-promoter; also called Sec63p-Ctrp; SEC63-^44Ctrp; not shown: HA tag at the C terminus of Trp1p
T1 sequence: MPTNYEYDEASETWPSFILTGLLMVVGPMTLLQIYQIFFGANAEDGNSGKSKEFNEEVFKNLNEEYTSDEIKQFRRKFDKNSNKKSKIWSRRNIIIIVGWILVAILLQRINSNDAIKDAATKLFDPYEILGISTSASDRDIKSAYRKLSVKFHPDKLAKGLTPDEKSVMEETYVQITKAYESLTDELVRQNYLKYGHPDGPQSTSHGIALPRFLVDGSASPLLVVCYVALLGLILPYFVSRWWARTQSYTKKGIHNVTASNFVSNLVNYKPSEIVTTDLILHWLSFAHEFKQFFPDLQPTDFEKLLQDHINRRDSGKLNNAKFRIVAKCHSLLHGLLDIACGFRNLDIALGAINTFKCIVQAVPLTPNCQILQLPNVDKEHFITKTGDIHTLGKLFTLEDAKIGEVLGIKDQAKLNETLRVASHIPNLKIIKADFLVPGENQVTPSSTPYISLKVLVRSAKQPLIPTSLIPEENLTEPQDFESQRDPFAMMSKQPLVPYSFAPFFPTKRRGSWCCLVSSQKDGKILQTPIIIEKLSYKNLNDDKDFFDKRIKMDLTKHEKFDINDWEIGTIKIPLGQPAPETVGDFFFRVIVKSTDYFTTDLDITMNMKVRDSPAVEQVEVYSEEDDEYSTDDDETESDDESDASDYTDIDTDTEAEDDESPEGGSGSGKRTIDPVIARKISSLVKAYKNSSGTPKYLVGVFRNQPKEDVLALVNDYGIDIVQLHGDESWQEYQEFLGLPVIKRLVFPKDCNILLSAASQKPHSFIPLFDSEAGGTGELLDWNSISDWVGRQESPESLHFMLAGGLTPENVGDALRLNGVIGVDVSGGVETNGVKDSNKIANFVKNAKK
The source says:
(§1) To monitor the interaction between Sec62p and Sec63p, trp1 yeast strains expressing pairs of matching Nₜᵣₚ-Sec62p and Sec63p-Cₜᵣₚ fusion proteins were spotted on selective plates lacking tryptophan (FIG. 5). […] To verify that the observed complementation of tryptophan auxotrophy is a result of the interaction between the Sec62p and Sec63p moieties of the fusion proteins, we fused the C-terminal fragments of split-Trp⁴⁴ and split-Trp¹⁸⁷ to the cytoplasmic site of Ste14p (FIG. 4B). Ste14p is a membrane protein of the ER that is known to interact with neither Sec62p nor Sec63p (FIG. 4B) (cf. Wittke, S., Lewke, N., Muller, S., and Johnsson, N. (1999), Mol Biol Cell 10, 2519-2530). No growth on plates lacking tryptophan was observed when matching pairs of Sec62p and Ste14p fusion proteins were co-expressed at 23° C. or 30° C. for 10 days (FIG. 5). The cellular amount of Ste14p-⁴⁴Cₜᵣₚ is roughly 2-3 fold lower than the amount of Sec63p-⁴⁴Cₜᵣₚ as determined by western blotting (data not shown). Since this relatively small effect cannot account for the clear growth difference between the strains expressing either ⁴⁴Nₜᵣₚ-Sec62p/Sec63p-⁴⁴Cₜᵣₚ or ⁴⁴Nₜᵣₚ-Sec62p/Ste14p-⁴⁴Cₜᵣₚ, we conclude that the ⁴⁴Nₜᵣₚ-Sec62p/Sec63p-⁴⁴Cₜᵣₚ interaction signal is specific.

In assay [2] the target is T2, Ste14p-^44Ctrp (Saccharomyces cerevisiae, UniProt P32584 1-239).
T2 construct: whole, on cells; Control fusion; Ctrp fused to the cytoplasmic site of Ste14p; also called Ste14p-Ctrp; STE14-^44Ctrp; not shown: HA tag at the C terminus of Trp1p
T2 sequence: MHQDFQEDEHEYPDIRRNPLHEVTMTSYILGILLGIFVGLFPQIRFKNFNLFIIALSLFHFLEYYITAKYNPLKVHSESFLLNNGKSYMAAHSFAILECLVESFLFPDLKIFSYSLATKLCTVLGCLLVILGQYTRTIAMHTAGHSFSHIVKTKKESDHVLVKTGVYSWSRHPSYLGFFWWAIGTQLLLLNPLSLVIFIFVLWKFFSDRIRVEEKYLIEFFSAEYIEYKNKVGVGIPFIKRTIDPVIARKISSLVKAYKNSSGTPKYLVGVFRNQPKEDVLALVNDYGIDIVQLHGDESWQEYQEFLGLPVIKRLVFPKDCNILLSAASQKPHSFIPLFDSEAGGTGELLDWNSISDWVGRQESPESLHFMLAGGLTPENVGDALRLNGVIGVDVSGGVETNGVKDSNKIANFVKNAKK
Excerpt: as §1

In assay [3] the target is T3, ^187Ntrp-Sec62p (Saccharomyces cerevisiae, UniProt P21825 2-274).
T3 construct: whole, on cells; Expressed in yeast EGY48 from pRS315CUP1 under the PCUP1-promoter; not shown: 6x His tag at the N-terminus of Ntrp
T3 sequence: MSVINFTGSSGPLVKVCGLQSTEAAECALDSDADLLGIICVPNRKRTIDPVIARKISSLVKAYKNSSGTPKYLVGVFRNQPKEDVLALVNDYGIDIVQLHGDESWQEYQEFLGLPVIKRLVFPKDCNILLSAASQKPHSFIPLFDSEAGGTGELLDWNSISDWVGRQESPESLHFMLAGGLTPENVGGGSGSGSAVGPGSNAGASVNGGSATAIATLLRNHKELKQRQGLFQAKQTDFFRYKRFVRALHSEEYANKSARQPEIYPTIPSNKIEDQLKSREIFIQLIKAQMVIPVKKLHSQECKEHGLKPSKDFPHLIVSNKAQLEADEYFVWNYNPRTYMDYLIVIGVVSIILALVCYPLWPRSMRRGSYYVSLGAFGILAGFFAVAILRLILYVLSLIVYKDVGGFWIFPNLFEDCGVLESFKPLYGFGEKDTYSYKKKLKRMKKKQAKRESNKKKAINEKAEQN
Excerpt: as §1

B1: ^44Ntrp-Sec62p (other, Saccharomyces cerevisiae)
chain: MSVINFTCSSGPLVKVCGLQSTEAAECALDSDADLLGIICVPNRGGSGSGSAVGPGSNAGASVNGGSATAIATLLRNHKELKQRQGLFQAKQTDFFRYKRFVRALHSEEYANKSARQPEIYPTIPSNKIEDQLKSREIFIQLIKAQMVIPVKKLHSQECKEHGLKPSKDFPHLIVSNKAQLEADEYFVWNYNPRTYMDYLIVIGVVSIILALVCYPLWPRSMRRGSYYVSLGAFGILAGFFAVAILRLILYVLSLIVYKDVGGFWIFPNLFEDCGVLESFKPLYGFGEKDTYSYKKKLKRMKKKQAKRESNKKKAINEKAEQN
notes: whole, on cells; Expressed in yeast EGY48 from pRS315CUP1 under the PCUP1-promoter; Ntrp at the N terminus of Sec62p; not shown: 6x His tag at the N-terminus of Ntrp
For B1, the binding result is “binds” in assay [1] and “no binding” in assay [2].

B2: Ste14p-^187Ctrp (other, Saccharomyces cerevisiae)
chain: MHQDFQEDEHEYPDIRRNPLHEVTMTSYILGILLGIFVGLFPQIRFKNFNLFIIALSLFHFLEYYITAKYNPLKVHSESFLLNNGKSYMAAHSFAILECLVESFLFPDLKIFSYSLATKLCTVLGCLLVILGQYTRTIAMHTAGHSFSHIVKTKKESDHVLVKTGVYSWSRHPSYLGFFWWAIGTQLLLLNPLSLVIFIFVLWKFFSDRIRVEEKYLIEFFSAEYIEYKNKVGVGIPFIDALRLNGVIGVDVSGGVETNGVKDSNKIANFVKNAKK
notes: whole, on cells; Control fusion; Ctrp fused to the cytoplasmic site of Ste14p; also called Ste14p-Ctrp; not shown: HA tag at the C terminus of Trp1p
On to B2, for which the binding result in assay [3] is reported as “no binding”.
